Publication PMC4407014 (Immunology and Cell Biology, 2014)

Target: Recombinant human CD4 (crystallisation construct) (Homo sapiens, UniProt P01730)
Experiment: crystal structure

binding result: binds
B1: Fab fragment of BT-061 (tregalizumab) (Fab, V domains shown)
VH: EEQLVESGGGLVKPGGSLRLSCAASGFSFSDCRMYWLRQAPGKGLEWIGVISVKSENYGANYAESVRGRFTISRDDSKNTVYLQMNSLKTEDTAVYYCSASYYRYDVGAWFAYWGQGTLVTVSS
VL: DIVMTQSPDSLAVSLGERATINCRASKSVSTSGYSYIYWYQQKPGQPPKLLIYLASILESGVPDRFSGSGSGTDFTLTISSLQAEDVAVYYCQHSRELPWTFGQGTKVEIK
